Data on 1 molecule can be found in patent US20100272737A1 (AGENCY FOR SCIENCE TECHNOLOGY AND RESEARCH, published 2010).

This test concerns the target T1, Flag-tagged Cavβ3-subunit (rat, UniProt P54287 1-484).
T1 construct: whole, on cells; Flag-tagged in co-immunoprecipitation, pull-down and immunofluorescence; also called Flag-Cavβ3; N-Flag Cavβ3-subunits
The test can be described thus: dissociation of β3 from GST-AID by peptide, Western blot of the supernatant. On the procedure:
B, BARP displaces the Caᵥβ3-subunit from the AID. In vivo expressed Caᵥβ3-subunits were pulled-down using a GST-AID fusion protein and the complex then incubated with increasing amounts of AID or BARP Domain I peptide. The Caᵥβ3-subunit displaced from the GST-AID was monitored by Western blot.
Preparation of cell homogenates lysed into a buffer containing (50 mM Tris-HCl (pH 7.5), 100 mM NaCl, 1 mM MgCl₂, 0.5% Triton) supplemented with proteases inhibitors, co-immunoprecipitation and Western blot analysis using the generated antibodies together with monoclonal anti-FLAG(M2; Sigma), rabbit anti-GST (Santa Cruz Biotechnology), rabbit Caᵥ1.2 (Chemicon International), Caᵥ2.1(Alomone labs), Caᵥ2.2 (Calbiochem), Caᵥβ₃ (Alomone labs) antibodies were carried out essentially as described in. Brain, skeletal muscle and heart lysates were purchased from Zyagen Laboratories. In vitro synthesized BARP was produced by using the TNT quick coupled transcription/translation systems (Promega). For the dissociation experiments, an AID peptide ([…]) and a BARP domain I peptide ([…]) were synthesized (Mimotopes). […] After extensive wash to remove unassociated β₃-subunits, increasing concentration of peptide (30, 60, 300, 600 nM) were added. After an incubation of four hours, 10% of the supernatant containing the dissociated β₃-subunit were loaded on SDS-PAGE and subjected to Western blot analysis. […]

T1 sequence (P54287 whole entry): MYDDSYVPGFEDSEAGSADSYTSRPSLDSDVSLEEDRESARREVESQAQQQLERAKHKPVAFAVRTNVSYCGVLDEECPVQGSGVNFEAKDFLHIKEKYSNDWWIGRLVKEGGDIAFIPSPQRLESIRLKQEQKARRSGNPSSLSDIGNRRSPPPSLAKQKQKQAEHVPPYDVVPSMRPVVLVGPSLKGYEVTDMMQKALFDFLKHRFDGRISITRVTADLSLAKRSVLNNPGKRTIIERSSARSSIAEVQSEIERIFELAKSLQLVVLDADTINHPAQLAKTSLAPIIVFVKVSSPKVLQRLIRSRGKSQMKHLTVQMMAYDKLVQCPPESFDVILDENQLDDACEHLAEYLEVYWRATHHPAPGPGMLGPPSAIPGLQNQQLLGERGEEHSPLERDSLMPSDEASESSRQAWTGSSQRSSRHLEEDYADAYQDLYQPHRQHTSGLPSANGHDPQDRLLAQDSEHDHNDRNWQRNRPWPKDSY

B1: BARP domain I peptide (peptide)
peptide: SYRDLWSLRASLELHAATASD
notes: Synthesized by Mimotopes; also called AID-like BARP peptide
B1: the binding result is recorded as “binds”.
